For 3 molecules, Kd results are on record in US20180155451A1 (published 2018).

Common to all, as to assay: SPR (Biacore), antibody captured on chip, soluble FcgR as analyte; experiment 1
A general note: In SPR one partner is held on a chip, and binding of the other changes the refractive index at the surface.

For assay [1], the target named is T1, FcγRIIIa F type extracellular domain with C-terminal His tag (human, UniProt P08637 17-208).
T1 construct: extracellular domain; also called FcgRIIIa F; FcgRIIIaF; not shown: His tag at the C terminus
The method, then:
(§1) Antibodies of interest were analyzed for the interaction to FcgR according to the method described in Reference Example 8.
(§2) Analysis of interaction between obj ective antibody and the FcγR was carried out using Biacore T100 (GE Healthcare), Biacore T200, Biacore A100, and Biacore 4000. HBS-EP+ (GE Healthcare) was used as the running buffer, and the measurement temperature was set to 25° C. Chips produced by immobilizing the antigen peptide by the amine coupling method to a Series S sensor Chip CM5 (GE Healthcare), chips produced by allowing preliminarily biotinylated antigen peptides to interact with and immobilize onto a Series S Sensor Chip SA (certified) (GE Healthcare), chips produced by immobilizing Protein L (ACTIGEN, BioVision) to Series S Sencor Chip CM5 (GE Healthcare), or chips produced by immobilizing Protein A/G (Thermo Scientific) to Series S Sencor Chip CM5 (GE Healthcare) were used. Antibodies of interest were captured onto these chips, and allowed to interact to each FcγR diluted with running buffer. To regenerate and repeatedly use the chip, the antibodies captured onto the chip were washed off by reacting 10 mM glycine-HCl, pH 1.5.

In assay [2] the target is T2, FcγRIa extracellular domain with C-terminal His tag (human, UniProt P12314 16-292).
T2 construct: extracellular domain; also called FcgRI; FcgRIa; not shown: His tag at the C terminus
The method, then:
as §1, §2

The target in assay [3] is T3, FcγRIIa H type extracellular domain with C-terminal His tag (human, UniProt P12318 34-217).
T3 construct: extracellular domain; also called FcgRIIa H; FcgRIIaH; not shown: His tag at the C terminus
T3 sequence (looked up): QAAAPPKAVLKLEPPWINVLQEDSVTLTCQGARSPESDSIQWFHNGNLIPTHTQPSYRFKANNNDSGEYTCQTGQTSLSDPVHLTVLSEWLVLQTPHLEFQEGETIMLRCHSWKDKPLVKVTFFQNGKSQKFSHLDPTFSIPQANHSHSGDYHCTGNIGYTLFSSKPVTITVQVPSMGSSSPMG
The method, then: as §1, §2

Assay [4] deals with T4, FcγRIIb extracellular domain with C-terminal His tag (human, UniProt P31994 43-217).
T4 construct: extracellular domain; also called FcgRIIb; 2b; not shown: His tag at the C terminus
T4 sequence (looked up): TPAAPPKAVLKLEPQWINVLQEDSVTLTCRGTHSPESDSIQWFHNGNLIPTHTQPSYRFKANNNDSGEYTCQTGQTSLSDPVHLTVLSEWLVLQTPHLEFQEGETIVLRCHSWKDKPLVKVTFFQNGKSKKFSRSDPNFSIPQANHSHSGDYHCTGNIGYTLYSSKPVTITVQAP
The method, then:
as §1, §2

The target of assay [5] is T5, FcγRIIa R type extracellular domain with C-terminal His tag (human, UniProt P12318 34-217).
T5 construct: extracellular domain; also called FcgRIIa R; FcgRIIaR; not shown: His tag at the C terminus
T5 sequence (looked up): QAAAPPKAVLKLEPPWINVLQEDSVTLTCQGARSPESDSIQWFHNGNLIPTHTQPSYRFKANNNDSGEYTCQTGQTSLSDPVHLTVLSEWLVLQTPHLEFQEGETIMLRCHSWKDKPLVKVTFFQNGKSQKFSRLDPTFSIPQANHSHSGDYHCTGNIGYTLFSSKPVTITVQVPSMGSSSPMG
The procedure:
as §1, §2

Assay [6] deals with T6, FcγRIIIa V type extracellular domain with C-terminal His tag (human, UniProt P08637 17-208).
T6 construct: extracellular domain; also called FcgRIIIa V; FcgRIIIaV; not shown: His tag at the C terminus
The procedure: as §1, §2

In general, Kd refers to the constant that tells how readily two partners part at equilibrium. Read a low Kd as tighter binding.

T1 sequence (P08637 17-208): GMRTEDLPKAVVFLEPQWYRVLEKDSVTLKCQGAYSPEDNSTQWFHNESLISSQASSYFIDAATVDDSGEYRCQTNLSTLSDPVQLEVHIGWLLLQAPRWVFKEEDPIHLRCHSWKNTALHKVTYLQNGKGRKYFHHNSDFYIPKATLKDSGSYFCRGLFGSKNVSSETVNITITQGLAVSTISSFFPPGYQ
T2 sequence (P12314 16-292): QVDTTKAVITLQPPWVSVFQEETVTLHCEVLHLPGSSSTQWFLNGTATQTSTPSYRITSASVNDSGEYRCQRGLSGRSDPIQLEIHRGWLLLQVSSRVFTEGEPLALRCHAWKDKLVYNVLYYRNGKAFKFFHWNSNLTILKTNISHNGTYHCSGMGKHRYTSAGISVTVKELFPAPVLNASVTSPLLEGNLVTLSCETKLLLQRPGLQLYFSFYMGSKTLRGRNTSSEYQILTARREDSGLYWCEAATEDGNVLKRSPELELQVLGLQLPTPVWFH
T6 sequence (P08637 17-208 F176V): as the sequence (P08637 17-208) above, with F160V counted along it

B1: H240-FA024/H240-FB065/L73-k0 (antibody, human IgG1, kappa)
heavy 1: QDQLVQSGAEVKKPGASVKVSCKASGFNIKDTYIQWVRQAPGQGLEWMGRIDPLRKQTKYREKFEGRVTITADTSTNTAYMELSSLRSEDTAVYYCVRSGREFDYWGQGTLVTVSSASTKGPSVFPLAPSSKSTSGGTAALGCLVKDYFPEPVTVSWNSGALTSGVHTFPAVLQSSGLYSLSSVVTVPSSSLGTKTYTCNVNHKPSNTKVDKKVEPKSCDKTHTCPPCPAPEYYWGPSVFLFPPKPKDTLMISRTPEVTCVVVDVSDEEPKVKFNWYVDGVEVHNAKTKPREEQYNATYRVVSVLTVLHQDWLNGKEYKCKVSNKALPAPIEKTISKAKGQPREPQVYTLPPSRKEKTKNQVSLTCLVKGFYPSDIAVEWESNGQPENNYKTTPPVLDSDGSFFLYSKLTVDKSRWQQGNVFSCSVMHEALHNRYTQKSLSLSP
heavy 2: QDQLVQSGAEVKKPGASVKVSCKASGFNIKDTYIQWVRQAPGQGLEWMGRIDPLRKQTKYREKFEGRVTITADTSTNTAYMELSSLRSEDTAVYYCVRSGREFDYWGQGTLVTVSSASTKGPSVFPLAPSSKSTSESTAALGCLVKDYFPEPVTVSWNSGALTSGVHTFPAVLQSSGLYSLSSVVTVPSSNFGTQTYTCNVDHKPSNTKVDKTVEPKSCDKTHTCPPCPAPELLGGPSVFLFPPKPKDTLMISRTPEVTCVVVDVSHEEPEVQFNWYVDGVEVHNAETKPREEQYNSTYRVVSVLTVLHQDWLNGKEYKCKVSNDALPMPIEETISKAKGQPREPQVYTLPPSREEMTKNQVSLTCLVKGFYPSDIAVEWESNGQPENNYKTTPPVLDSDGSFFLYSKLTVDKSRWQQGNVFSCSVMHEALHNHYTQESLSLSP
light: DIQMTQSPSSLSASVGDRVTITCRASQDIHKYIAWYQQKPGQAPRLLIQYTSTLQPGVPSRFSGSGSGTDYTFTISSLQPEDIATYYCLQYEQLRTFGGGTKVEIKRTVAAPSVFIFPPSDEQLKSGTASVVCLLNNFYPREAKVQWKVDNALQSGNSQESVTEQDSKDSTYSLSSTLTLSKADYEKHKVYACEVTHQGLSSPVTKSFNRGEC
notes: Heterodimerized anti-EREG IgG1 antibody; A chain altered from H240-AK072, B chain altered from H240-BH076
For the molecule B1, the Kd in assay [1] worked out at 5 nM; in assay [2], 0.15 nM; in assay [3], 95 nM; in assay [4] it was 1700 nM; in assay [5], 300 nM; in assay [6], 1.4 nM.

B2: H240-FA030/H240-FB084/L73-k0 (antibody, human IgG1, kappa)
heavy 1: QDQLVQSGAEVKKPGASVKVSCKASGFNIKDTYIQWVRQAPGQGLEWMGRIDPLRKQTKYREKFEGRVTITADTSTNTAYMELSSLRSEDTAVYYCVRSGREFDYWGQGTLVTVSSASTKGPSVFPLAPSSKSTSGGTAALGCLVKDYFPEPVTVSWNSGALTSGVHTFPAVLQSSGLYSLSSVVTVPSSSLGTKTYTCNVNHKPSNTKVDKKVEPKSCDKTHTCPPCPAPEYYWGPSVFLFPPKPKDTLMISRTPEVTCVVVDVSDEEPKVKFNWYVDGVEVHNAKTKPREEQYNATYRVVSVLTVLHQDWLNGKEYKCKVSNKALPAPIEKTISKAKGQPREPQVYTLPPSRKEMTKNQVSLTCLVKGFYPSDIAVEWESNGQPENNYKTTPPVLDSDGSFFLYSKLTVDKSRWQQGNVFSCSVMHEALHNRYTQKSLSLSP
heavy 2: QDQLVQSGAEVKKPGASVKVSCKASGFNIKDTYIQWVRQAPGQGLEWMGRIDPLRKQTKYREKFEGRVTITADTSTNTAYMELSSLRSEDTAVYYCVRSGREFDYWGQGTLVTVSSASTKGPSVFPLAPSSKSTSESTAALGCLVEDYFPEPVTVSWNSGALTSGVHTFPAVLQSSGLYSLSSVVTVPSSNFGTQTYTCNVDHKPSNTKVDKTVEPKSCDKTHTCPPCPAPELLGGPSVFLFPPKPKDTLMISRTPEVTCVVVDVSHEEPEVQFNWYVDGVEVHNAETKPREEQYNSTYRVVSVLTVLHQDWLNGKEYKCKVSNDALPMPIEETISKAKGQPREPQVYTLPPSREEMTKNQVSLTCLVKGFYPSDIAVEWESEGQPENNYKTTPPVLDSDGSFFLYSKLTVDKSRWQQGNVFSCSVMHEALHNHYTQESLSLSP
light: DIQMTQSPSSLSASVGDRVTITCRASQDIHKYIAWYQQKPGQAPRLLIQYTSTLQPGVPSRFSGSGSGTDYTFTISSLQPEDIATYYCLQYEQLRTFGGGTKVEIKRTVAAPSVFIFPPSDEQLKSGTASVVCLLNNFYPREAKVQWKVDNALQSGNSQESVTEQDSKDSTYSLSSTLTLSKADYEKHKVYACEVTHQGLSSPVTKSFNRGEC
notes: as for B1
For the molecule B2, the Kd turned out to be 4.2 nM in assay [1]; 0.12 nM in assay [2]; 88 nM in assay [3]; 2500 nM in assay [4]; 270 nM in assay [5]; 1.3 nM in assay [6].

B3: H240-FA030/H240-FB083/L73-k0 (antibody, human IgG1, kappa)
heavy 1: QDQLVQSGAEVKKPGASVKVSCKASGFNIKDTYIQWVRQAPGQGLEWMGRIDPLRKQTKYREKFEGRVTITADTSTNTAYMELSSLRSEDTAVYYCVRSGREFDYWGQGTLVTVSSASTKGPSVFPLAPSSKSTSGGTAALGCLVKDYFPEPVTVSWNSGALTSGVHTFPAVLQSSGLYSLSSVVTVPSSSLGTKTYTCNVNHKPSNTKVDKKVEPKSCDKTHTCPPCPAPEYYWGPSVFLFPPKPKDTLMISRTPEVTCVVVDVSDEEPKVKFNWYVDGVEVHNAKTKPREEQYNATYRVVSVLTVLHQDWLNGKEYKCKVSNKALPAPIEKTISKAKGQPREPQVYTLPPSRKEMTKNQVSLTCLVKGFYPSDIAVEWESNGQPENNYKTTPPVLDSDGSFFLYSKLTVDKSRWQQGNVFSCSVMHEALHNRYTQKSLSLSP
heavy 2: QDQLVQSGAEVKKPGASVKVSCKASGFNIKDTYIQWVRQAPGQGLEWMGRIDPLRKQTKYREKFEGRVTITADTSTNTAYMELSSLRSEDTAVYYCVRSGREFDYWGQGTLVTVSSASTKGPSVFPLAPSSKSTSESTAALGCLVEDYFPEPVTVSWNSGALTSGVHTFPAVLQSSGLYSLSSVVTVPSSNFGTQTYTCNVDHKPSNTKVDKTVEPKSCDKTHTCPPCPAPELLGGPSVFLFPPKPKDTLMISRTPEVTCVVVDVSHEEPEVQFNWYVDGVEVHNAETKPREEQYNSTYRVVSVLTVLHQDWLNGKEYKCKVSNDALPMPIEETISKAKGQPREPQVYTLPPSREEMTKNQVSLTCLVKGFYPSDIAVEWESNGQPENNYKTTPPVLDSDGSFFLYSKLTVDKSRWQQGNVFSCSVMHEALHNHYTQESLSLSP
light: DIQMTQSPSSLSASVGDRVTITCRASQDIHKYIAWYQQKPGQAPRLLIQYTSTLQPGVPSRFSGSGSGTDYTFTISSLQPEDIATYYCLQYEQLRTFGGGTKVEIKRTVAAPSVFIFPPSDEQLKSGTASVVCLLNNFYPREAKVQWKVDNALQSGNSQESVTEQDSKDSTYSLSSTLTLSKADYEKHKVYACEVTHQGLSSPVTKSFNRGEC
notes: as for B1
B3: the Kd in assay [1] came to 3.9 nM; in assay [2] it was 0.081 nM; in assay [3], 82 nM; in assay [4] it was 1500 nM; in assay [5] it was 280 nM; in assay [6] it was 1.2 nM.
